Results reported in patent US20120053118A1.
Bridge positions count the residues as written; N and C are the ends. Ends that are not written are not given here.

Molecular target: amylin receptors (membrane-bound, rat basal forebrain membranes containing the nucleus accumbens and surrounding regions) (rat)
Experiment: competition with 125I Bolton-Hunter rat amylin on rat basal forebrain membranes

IC50 [nM]	Molecule
0.085	CNTATCATQRLANFLVHSSNNFGPILPSTNVGSNTY [des-^1Lys^25, 28Pro-h-Amylin]
0.014	CNTATCATQRLANFLVHSSNNFGPILPPTNVGSNTY [des-^1Lys^25, 28, 29Pro-h-Amylin]
0.021	CNTATCATQRLANFLVRSSNNFGPILPPTNVGSNTY [des-^1Lys^18Arg^25, 28, 29Pro-h-Amylin]
0.082	CNTATCATQRLANFLVRSSNNFGPILPSTNVGSNTY [des-^1Lys^18Arg^25, 28Pro-h-Amylin]
0.026	KCNTATCATQRLANFLVHSSNNFGPILPSTNVGSNTY [^25, 28Pro-h-Amylin]
0.021	KCNTATCATQRLANFLVRSSNNFGPILPPTNVGSNTY [^18Arg^25, 28, 29Pro-h-Amylin]
0.31	KDNTATKATQRLANFLVHSSNNFGAILSSTNVGSNTY (lactam 2-7; not fully specified (C-terminus)) [^2, 7Cyclo-[^2Asp,^7Lys]-h-Amylin]
0.032	KCNTATCATQRLANFLVRSSNNFGPILPSTNVGSNTY [^18Arg^25, 28Pro-h-Amylin]
0.01	KCNTATCATQRLANFLVHSSNNFGPILPPTNVGSNTY (disulfide 2-7; not fully specified (C-terminus)) [^25, 28, 29Pro-h-Amylin]
0.018	KCNTATCATQRLANFLVHSSNNFGPVLPPTNVGSNTY [^25Pro^26Val^28, 29Pro-h-Amylin]

Molecular target: amylin receptors (membrane-bound, rat basal forebrain membranes containing the nucleus accumbens and surrounding regions) (rat)
Experiment: as above
Remark: another data set of the same source

IC50 [µM]	Molecule
50	human amylin (hAmylin) (ligand)
